Measurements from publication PMC5834214 (PLoS Pathogens, 2018).

Columns and labels:
[1] = target: LCMV NP (Strep-NP) (Lymphocytic choriomeningitis virus, UniProt P09992)
[2] = target: eGFP (Aequorea victoria, UniProt P42212, F64L/H231L/S65T)

Chain of LCMV NP (Strep-NP) (P09992 whole entry): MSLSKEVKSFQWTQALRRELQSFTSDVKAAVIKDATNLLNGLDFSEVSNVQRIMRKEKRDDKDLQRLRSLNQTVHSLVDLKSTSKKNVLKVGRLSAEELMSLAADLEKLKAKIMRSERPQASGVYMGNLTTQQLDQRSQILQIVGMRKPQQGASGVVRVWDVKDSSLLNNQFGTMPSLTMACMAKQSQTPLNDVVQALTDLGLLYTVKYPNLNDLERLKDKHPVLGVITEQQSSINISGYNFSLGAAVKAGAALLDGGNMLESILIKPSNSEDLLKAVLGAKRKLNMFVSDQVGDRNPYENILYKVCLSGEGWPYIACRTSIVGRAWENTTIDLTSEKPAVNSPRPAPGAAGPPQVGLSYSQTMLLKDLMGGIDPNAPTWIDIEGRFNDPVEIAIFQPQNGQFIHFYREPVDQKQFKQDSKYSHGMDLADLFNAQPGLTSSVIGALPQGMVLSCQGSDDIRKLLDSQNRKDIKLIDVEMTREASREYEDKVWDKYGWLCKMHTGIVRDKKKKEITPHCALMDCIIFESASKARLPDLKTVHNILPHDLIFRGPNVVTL

B1: HNRNPC (protein, UniProt P07910 2-306, looked up)
Heterogeneous nuclear …: ASNVTNKTDPRSMNSRVFIGNLNTLVVKKSDVEAIFSKYGKIVGCSVHKGFAFVQYVNERNARAAVAGEDGRMIAGQVLDINLAAEPKVNRGKAGVKRSAAEMYGSVTEHPSPSPLLSSSFDLDYDFQRDYYDRMYSYPARVPPPPPIARAVVPSKRQRVSGNTSRRGKSGFNSKSGQRGSSKSGKLKGDDLQAIKKELTQIKQKVDSLLENLEKIEKEQSKQAVEMKNDKSEEEQSSSSVKKDETNVKMESEGGADDSAEEGDLLDDDDNEDRGDDQLELIKDDEKEAEEGEDDRDSANGEDDS
B1 was tested, and the “Spectral count NP Average” value [1] was 4.5, the “Spectral count NP Exp. 1” value [1] was 4 and the “Spectral count NP Exp. 2” value [1] was 5. The “Spectral count eGFP Average” value [2] was 0, the “Spectral count eGFP Exp. 1” value [2] was 0 and the “Spectral count eGFP Exp. 2” value [2] was 0.
